According to publication PMC3983041, “Interplay of the Serine/Threonine-Kinase StkP and the Paralogs DivIVA and GpsB in Pneumococcal Cell Elongation and Division” (PLoS Genetics, 2014):

T1: DivIVA (Streptococcus pneumoniae (strain R800), UniProt Q8CWP9 1-262)
T1 construct: DivIVA of Streptococcus pneumoniae, PCR from chromosomal DNA of strain R800, cloned in pETPhos; also called Spn-DivIVA; DivVA; source: E. coli BL21(DE3), purified (Ni-NTA agarose)
T1 sequence (looked up): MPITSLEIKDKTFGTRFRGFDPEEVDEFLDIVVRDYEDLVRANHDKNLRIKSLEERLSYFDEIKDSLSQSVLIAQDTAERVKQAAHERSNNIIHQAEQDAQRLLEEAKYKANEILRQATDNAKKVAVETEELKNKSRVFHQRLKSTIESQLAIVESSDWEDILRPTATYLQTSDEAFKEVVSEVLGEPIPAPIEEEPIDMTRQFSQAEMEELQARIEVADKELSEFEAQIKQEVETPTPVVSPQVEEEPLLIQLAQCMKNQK

T2: inactive cytoplasmic domain of StkP-K42R (Streptococcus pneumoniae (strain R800), UniProt Q8DNS0 1-342, K42R)
T2 construct: also called StkP-K42R cytoplasmic domain; source: E. coli BL21(DE3), purified (Ni-NTA agarose)
T2 sequence: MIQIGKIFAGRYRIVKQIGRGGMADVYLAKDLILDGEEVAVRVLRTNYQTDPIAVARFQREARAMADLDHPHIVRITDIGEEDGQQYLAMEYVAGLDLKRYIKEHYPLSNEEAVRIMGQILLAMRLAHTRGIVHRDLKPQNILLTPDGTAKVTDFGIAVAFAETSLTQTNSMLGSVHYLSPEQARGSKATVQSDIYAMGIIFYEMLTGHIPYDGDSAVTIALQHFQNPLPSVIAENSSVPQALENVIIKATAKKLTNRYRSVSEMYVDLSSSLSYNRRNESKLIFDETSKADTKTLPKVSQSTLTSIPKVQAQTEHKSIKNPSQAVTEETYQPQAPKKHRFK

B1: DivIVA (natural protein)
chain: T1 sequence (looked up)
B2: GpsB (natural protein, Streptococcus pneumoniae (strain R800), UniProt C1CIN3 1-109, looked up)
chain: MASIIFSAKDIFEQEFGREVRGYNKVEVDEFLDDVIKDYETYAALVKSLRQEIADLKEELTRKPKPSPVQAEPLEAAITSSMTNFDILKRLNRLEKEVFGKQILDNSDF
notes: GpsB of Streptococcus pneumoniae, PCR from chromosomal DNA of strain R800, cloned in pETPhos; In the SPR either coupled to the chip by its amino groups or injected as analyte; also called Spn-GpsB; source: E. coli BL21(DE3), purified (Ni-NTA agarose)

How the values were obtained:
Assay in all cases: SPR; BIAcore T100; EzrA or GpsB covalently coupled through amino groups to a CM5 chip; analytes 0.002-1 µM at 30 µL/min in 10 mM HEPES pH 7.4, 150 mM NaCl, 0.005% surfactant; apparent KD from the equilibrium signal (Req); triplicate
[1] = molecular target: EzrA without its N-terminal transmembrane domain (Streptococcus pneumoniae (strain R800))
Chain of EzrA without its N-terminal transmembrane domain (Streptococcus pneumoniae (strain R800)) (B1IAY5 28-575 limits assumed): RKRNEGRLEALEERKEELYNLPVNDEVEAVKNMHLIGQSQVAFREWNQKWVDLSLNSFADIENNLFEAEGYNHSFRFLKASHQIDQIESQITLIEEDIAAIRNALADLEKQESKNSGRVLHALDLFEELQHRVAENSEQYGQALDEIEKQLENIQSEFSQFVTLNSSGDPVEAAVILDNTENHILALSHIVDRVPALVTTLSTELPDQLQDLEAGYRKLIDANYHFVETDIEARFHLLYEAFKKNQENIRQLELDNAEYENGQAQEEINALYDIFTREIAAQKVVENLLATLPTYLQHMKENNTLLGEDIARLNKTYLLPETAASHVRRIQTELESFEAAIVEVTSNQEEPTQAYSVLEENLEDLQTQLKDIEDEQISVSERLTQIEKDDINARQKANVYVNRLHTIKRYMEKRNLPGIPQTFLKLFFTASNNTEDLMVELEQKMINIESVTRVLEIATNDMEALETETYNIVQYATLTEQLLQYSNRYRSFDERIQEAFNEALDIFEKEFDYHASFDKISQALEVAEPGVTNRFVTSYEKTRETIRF

[2] = molecular target: T1, DivIVA; settings: both partners purified
[3] = molecular target: T2, inactive cytoplasmic domain of StkP-K42R; settings: both partners purified

| Molecule | Kd [1] | Kd [2] | Kd [3] |
| --- | --- | --- | --- |
| FtsZ (from UniProt A0A0H2ZNE0 1-419) (natural protein) | 0.295 µM | – | – |
| GpsB (from UniProt C1CIN3 1-109) (natural protein) | 0.77 µM | – | – |
| B1 | 0.53 µM | – | – |
| B2 | – | 0.085 ± 0.014 µM | 0.5 ± 0.06 µM |
